Data set [1] concerns the target TglHI holoenzyme (Pseudomonas syringae pv. maculicola ES4326). The data set is described as follows: ITC.
For the next data set, the system named is TglHI. In kind it is biochemical, Pseudomonas syringae pv. maculicola ES4326. How it is done:
TglHI protein and H2O2 (or EDTA) were initially incubated together for 10 min, and then protein was purified by size exclusion chromatography to remove excess H2O2 (or EDTA). The reaction between the H2O2 (EDTA)-treated TglHI and minimum substrate analog of TglA-Cys, β-NAD^+, and FDH was then monitored for the levels of NADH.
(A) In vitro activity assay of the modification of the minimum substrate analog of TglA-Cys by TglHI with treatment of H2O2 in the presence of formate dehydrogenase (FDH) and β-NAD+. NADH formation was […]
(B) In vitro activity assay of the modification of the minimum substrate analog of TglA-Cys by TglHI with […]
treatment of EDTA (5 mM, 10 mM, 20 mM).

Data set [2] in a line: Solubility on (co-)expression in E. coli, SDS-PAGE. In kind it is physicochemical. As to conditions: expression in E. coli BL21, SDS-PAGE. As for the experimental part:
The tglH (NCBI accession No. WP_007252215.1) and tglI (NCBI accession No. WP_007252216.1) genes from Pseudomonas syringae pv. maculicola (P. syringae) ES4326 were codon-optimized for expression in E. coli (the optimized sequences are provided in KRT) and subcloned into the pRSFDuet-1 vector. E. coli BL21 (DE3) cells containing the tglHI-pRSFDuet-1 plasmid were grown in Luria broth (LB) medium at 37 °C and 220 rpm to an optical density at 600 nm (OD600) of 0.6. Fe-containing TglHI proteins were obtained by the addition of 1 mM (NH4)2Fe(SO4)2 in LB medium. Subsequently, cultures were induced at 16 °C with the addition of isopropyl β-D-thiogalactoside (IPTG) at a final concentration of 0.2 mM. […] After cell lysis, lysates were centrifuged at 18000 rpm for 30 min to obtain the supernatant containing the target protein. […] The purity of the purified proteins was assessed using sodium dodecyl sulfate‒polyacrylamide gel electrophoresis (SDS‒PAGE) and they were flash-frozen with liquid nitrogen for subsequent crystallization and biochemical analysis. […]
(B) The tglH and tglI genes were inserted into the pRSF-DuET-1 vector for co-expression, and the complexes were purified through nickel affinity columns. […] The proteins were then eluted and analyzed by SDS-PAGE. […]

Entries after “also recorded” stand apart in the source; their conditions may differ.

For “TglA-Cys analog containing the C-terminal 19 amino acids (peptide)”, in data set [1], the equilibrium dissociation constant (Kd) was 8.5 µM.
As for `OO` [H2O2], the “TglHI activity after pretreatment with H2O2” value in the data set on TglHI (10 min incubation, then size exclusion chromatography, NADH at 340 nm) was “background; also recorded: loss of TglHI activity”.
`O=C(O)CN(CCN(CC(=O)O)CC(=O)O)CC(=O)O` [EDTA]: the “TglHI activity after treatment with EDTA” value in the data set on TglHI (EDTA 5 mM, 10 mM, 20 mM, 10 min incubation, then size exclusion chromatography) was “merely attenuated the enzymatic activity of TglHI instead of abolishing the activity”. Further, the “effect of higher EDTA concentrations on TglHI” value in the data set with TglHI (higher concentrations than 5, 10, 20 mM) is recorded as “precipitation”.

B1: TglI: recruitment subunit with RRE domain (protein)
chain: MEAEQVWKLWRRVLRDERLQAQLFSATDATHWLSGFSESESKILSVYAQQFDRVKWFVENYQFRLVNSFLNALETGAPLSLRALLHINVDLNAQSKAFLRDRQWRDYGPQVYTYCEDVLGFLAEADELQGYPEILDLMRLERESVRLYRGLVDPESLPADNRYQRTSMARLYETRFALSGWLRQKDQLGLTRLPESTEHVLIYLPTLQARHKFTLINAQAARLYNCLEQPQSAAGLFMLINSDSASVPGSADLALLDRLEQLNAIRKPL
For the molecule B1, the “solubility of protein / complex” value in data set [2] is “insoluble when expressed alone and only soluble when co-expressed with TglH”.

B2: TglH: Fe-dependent DUF692 catalytic subunit (protein)
chain: MPDFVKPAPIGVGIQYNPEILDWFPFEDIQVDILEILLDNIMAPMDGPQIIKPSAQAMIERLGQKFTLLAHSNYGCDFGFSALEETAAVQRHVPLAKMLNSPWVANHCFYGDQSWLDIWSSPIQFSAAEVARCADRAQSLQTLYGMPLAHENAAYYLECPGAEMREAEFLARLVQRSGTFLHLDLHNIYTNHLNLKGFDLKDYMDTLPLDKVISVHLAGGSWHGGLYHDWHDACVPEPVWDLYEDLLSRAQPSAVILEYQGQAHHAQTRIMDASDESMIVRDVQRAQAIWSRYNRHPQERQYGS
Regarding B2, in data set [2], the “solubility of protein / complex” value is recorded as “expressed partially in soluble form”.

The values above are taken from article PMC10880893, “Structures of the holoenzyme TglHI required for 3-thiaglutamate biosynthesis” (Structure (London, England : 1993), 2023).
